± gives the uncertainty stated by the source.

This series is described as follows: amyloid nucleation score (Sup35N fusion, yeast selection) (log enrichment); library NNK2; higher = more nucleation; inactive = no reads after selection. The essentials: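 Yeast lacking psi expressed peptides of 20 random codons fused to Sup35N, received 100 μM copper sulfate for 24 hours, and were then grown for 7 days at 30°C on medium lacking adenine and uracil. Illumina sequencing of input and output plasmid inserts provided the reads. Nucleation scores are DiMSum log enrichments of output over input, centred on the mode of non-aggregating sequences. Any sequence with under 100 input reads was excluded.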
SMSIWSFYIAP gave an amyloid nucleation score of 4.59 ± 0.066.
The result for AVFRLFASVPGFNRRPGLEQ reads 0.314 ± 0.25; that for DRLVGVTLYSTVYSDYSSSG, -0.768 ± 1.1; that for TGDMQVAVYCVILGGFSMGM, 4.44 ± 0.055.
The result for RSSLIIALCWFR reads 5.54 ± 0.059; that for TAWHFPCRQRDLQLVSKVTG, “inactive”.
With SGCASSSDTFDRSLCCEYTL, the amyloid nucleation score was determined as 0.295 ± 1.
The result for GELRIYRLGHCVCVSMSLPA reads 1.27 ± 0.36; that for DLWRLMEIFMRSMRWHGITT, -0.456 ± 0.32; that for SRFLARQLLKSASLRLFVET, -0.159 ± 0.35.
The result for CCFRKWSSTAHRRFPCWREL reads 0.255 ± 0.54.
Regarding VWEVAMISTINSAGHLCLGD, the amyloid nucleation score is -0.109 ± 0.76.
FRDCYCRVVAPYDLHFVCTW came in with an amyloid nucleation score of 0.573 ± 0.15.
YNMGNSGLGGTRWEIICFAI: the amyloid nucleation score was -1.02 ± 0.5.
The result for NDKCKLVLIGLDFNELVQPS reads -0.708 ± 1.1; that for SALIF, 0.115 ± 1; that for DLWTAWSRLHLDGG, 0.431 ± 0.23.
TPRIS: the amyloid nucleation score was 0.647 ± 0.8.
Regarding YSSCLCLQCTRMQTPMVQFL, the amyloid nucleation score amounted to 0.032 ± 0.53.
The result for SPQLTIYPRMYSRSLVLNRC reads 0.078 ± 0.77; that for NESNYRVVRGKFKSEFRAEL, 3.61 ± 0.13; that for FMVILSGYIVL, 0.429 ± 0.66.
TSSYTWGVEPDASRTILVDT gave an amyloid nucleation score of 0.4 ± 0.32.
The result for VSLLFTPTNEYIWGTPLALR reads “inactive”; that for EFFFRLMTDPTN, -0.376 ± 0.63; that for LYGNYDTSYTLIQVISLRNG, 6.202 ± 0.04.
The result for FFYHLCASVRLA reads -1.11 ± 0.78; that for GSSRLKGDGIVLVKCSWRYM, 1.13 ± 0.38.
The result for KFNILPKLWMDICMIYLAVY reads -1.33 ± 0.49; that for IIWPPMSWELISLNCQCVRK, -0.413 ± 0.63.
GFSLC displayed an amyloid nucleation score of 0.541 ± 0.66.
The result for VKGVLPVLWMGFNKQHFINH reads 0.602 ± 0.81.
Consider AETTFNIENDKTYIIYDCAE, for which the amyloid nucleation score is -0.161 ± 0.39.
The result for IYRTYYGINACLINLCMFDN reads 7.55 ± 0.078.
The result for LCSWLEMGFIIRFAGIVRLD reads -0.292 ± 0.54; that for VGSFGLMKTYGVYCDNLLGR, “inactive”.
Turning to GCNLFYCLTRSSIETNTSIS, the amyloid nucleation score came to 4.3 ± 0.095.
IDKSG came in with an amyloid nucleation score of 2.44 ± 0.14.
The result for LANKAYYVCLV reads 0.022 ± 0.62.
The result for SSAWLDLDIMLGLFVIVFTP reads 5.439 ± 0.044; that for TVFFIVPLCSLLDKVNSLGA, 3.34 ± 0.086; that for YLLGKSYF, -1.08 ± 0.36.
The result for MLLYNESNANQLKRGSGRWL reads 0.156 ± 0.32; that for HGLYCYPGYSDQCVTFVHGY, “inactive”; that for KSESLLPLNWAHARALIHRA, 1.1 ± 0.36.
As to RDVRQVQRWSYCWRARTRSA, the amyloid nucleation score came to 1.19 ± 0.25.
The result for QLVGSLGGAQGTAGRYRYTG reads 0.658 ± 0.51; that for EVHHNGM, 0.367 ± 0.62.
FQWQLMVFSADEFQNMAHMI showed an amyloid nucleation score of 0.182 ± 0.79.
The result for LPHKIM reads 0.262 ± 0.53.
The substance REFDRNFTPYPSQQELPIWW showed an amyloid nucleation score of 0.827 ± 0.39.
The result for KFWDSDVGVGGHHV reads “inactive”; that for CHMDFERFRWLKFSLFCSLH, -0.562 ± 1.1.
The substance VNLLFVVLCTMGSVSFKNSC came in with an amyloid nucleation score of 7.768 ± 0.036.
The substance VVYSSSFVAGLYDSMCWMWG returned an amyloid nucleation score of 1.49 ± 0.24.
As to KNYVYWDLIHRFCLSTMR, the amyloid nucleation score amounted to 1.62 ± 0.52.

Source of the values: the supplement of paper PMC12042874.
